Data reported in the nanobody polyreactivity screen of Harvey et al. (2022).

Experiment: yeast display, Sf9 membrane polyspecificity reagent, FACS + sequencing; frameworks hold sequencing errors
How it was run: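 After 36–48 hours of galactose induction, yeast (Saccharomyces cerevisiae BJ5465) displaying a synthetic nanobody library were stained at 4 °C for 1 hour with 10% biotinylated, detergent-solubilized Sf9 membrane reagent. Streptavidin microbeads enriched the stained cells before FACS sorting into low and high (top ~1%) gates on anti-HA and streptavidin fluorescence. Each clone's polyreactivity label reflects its gate of origin.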

## QVQLVESGGGLVQAGGSLRLSCAASGFTFYSYAMGWYRQAPGKERELVAAISWSGTRTYYADSVKGRFTISRDNAKNTVYLQMNSLKPEDTAVFYCAARGYRYGYGYWGQGTQVTVSS
  polyreactivity (PSR sort gate): high polyreactivity

## QVQLVESGGGLVQAGGSLRLSCAASGFTFYSYVMGWYRQAPGKERELVAAISWSGGRTNYADSVKGRFTISRDNAKNTVYLQMNSLKPEDTAVYYCNAPFRLRYRVDYWGQVTQVTVSS
  polyreactivity (PSR sort gate): high polyreactivity

## QVQLVESGGGLVQAGGSLRLSCAASGFTFYTNAMGWYRQARGQERELVAAISSSGGRTYYADSVKGRFTISRDNAKNTVYLQMNSLKPEDTAVYYCNAYFTRSFSYIYWGQGTQVTVSS
  polyreactivity (PSR sort gate): high polyreactivity

## QVQLVESGGGLVQAGGSLRLSCAASGFTFYTYAMGWYRQAPGKERELVATISGSGGDTNYADSVKGRFTISRDNEKNTVYLQMDSLKPEDTAVYYCAAEPDATTYSDPYDYWGQGTQVTVSS
  polyreactivity (PSR sort gate): low polyreactivity

## QVQLVESGGGLVQAGGSLRLSCAASGFTFYTYTMGWYRQAPGKERELVAVISRSGGSTYYADSVKGLFTISRDNAKNTVYLQMNSLNPEDTAVYYCNAGYWRFIDSFDYWGQRTQVTVSS
  polyreactivity (PSR sort gate): high polyreactivity

## QVQLVESGGGLVQAGGSLRLSCAASGFTFYVYTMGWYRQAPGKERELVASISGGRTYYADSVKGRFTISRDNAKNTVYLQMNSLKPEDTAVYYCAAVPYPSYYDTRYDYWGPGTQVTVSS
  polyreactivity (PSR sort gate): low polyreactivity

## QVQLVESGGGLVQAGGSLRLSCAASGFTFYWYTMGGYRQAPGKDRELVAAISGSGGRTYYADSVKGRFTISRDNAKKTVYLQMNSLKPEDTAVYYCAARGRYAYPRYGYYPVNYWGQVTQVTVSS
  polyreactivity (PSR sort gate): high polyreactivity

## QVQLVESGGGLVQAGGSLRLSCAASGFTFYYNAMGWYRQAPGKERELVAAIYSDGSTYYADSVKGRFTISRDNAKNTFYLQMNSLKAEDTAVYYCAVRKAYQYGFYYWGQGTQVTVSS
  polyreactivity (PSR sort gate): low polyreactivity

## QVQLVESGGGLVQAGGSLRLSCAASGFTFYYNAMGWYRQAPGKERELVATISGSGGRTYYADSVKGRFTISRDNAKNTVYLQMNSLKPEDTAVYYCAARYVWSRYGYWGQGTQVTVSS
  polyreactivity (PSR sort gate): high polyreactivity

## QVQLVESGGGLVQAGGSLRLSCAASGFTFYYYAMGWSRQAPGKERELVAAISQNGGRTYYADSVKGRFTISRDNAKNTVYLQMNSLKPEDTAVYYCAKASGYSSYGYWGQGTQVTVSS
  polyreactivity (PSR sort gate): high polyreactivity

## QVQLVESGGGLVQAGGSLRLSCAASGFTFYYYAMGWYRQAPGKERELVAAISRGGGNTYYADSVKGRFTISRDNAKNTVYLQMNSLKPEDTAVYYCAARRPVYRIYGDRGRWYNYWGQGTQVTVSS
  polyreactivity (PSR sort gate): high polyreactivity

## QVQLVESGGGLVQAGGSLRLSCAASGFTFYYYAMGWYRQAPGKERELVAAISSRGGNTYYADSVKGRFTISRDNAKNTVYLQMNSLKPEDTAVYYCASVPLKYDYWGQGTQVTVSS
  polyreactivity (PSR sort gate): high polyreactivity

## QVQLVESGGGLVQAGGSLRLSCAASGFTFYYYAMGWYRQAPGKERELVAAITSGGSTYYADSVKGRFTISRDNAKNTVYLQMNSLKPEDTAVYYCNTVHYNLDYEYDYWGQGTQGTVSS
  polyreactivity (PSR sort gate): low polyreactivity

## QVQLVESGGGLVQAGGSLRLSCAASGFTFYYYAMGWYRQAPGKERELVAAITSSGDSTFYADSVKGRFTISRDNAKNTVSLQMNSLKPEDTAVYYCAADRFQGRDDYWGQGTQGTVSS
  polyreactivity (PSR sort gate): high polyreactivity

## QVQLVESGGGLVQAGGSLRLSCAASGFTFYYYAMGWYRQAPGKERELVATISSSGGSTHYADSVKGRFTISRDNAKNTVYLQMNSLKPEDTAVYYCAADSYWDQSHIRDYWGQGTQVTVSS
  polyreactivity (PSR sort gate): low polyreactivity

## QVQLVESGGGLVQAGGSLRLSCAASGFTFYYYTMGWYIKAPGKERELVAAITRSGGRTYYADSVKGRFTISRDNAKNTVYLQMNSLKPEDTAVYYCAARTPFYNSYRRDYWGQGTQVTVSS
  polyreactivity (PSR sort gate): high polyreactivity

## QVQLVESGGGLVQAGGSLRLSCAASGFTFYYYTMGWYRQAPGKERELVAVITLSDGSTNYADSVKGRFTISRDNAKNTVYLQMNSLKPEDTAVYYCDAKYVDYGYHGYDYWGQGTQVTVSS
  polyreactivity (PSR sort gate): low polyreactivity

## QVQLVESGGGLVQAGGSLRLSCAASGFTFYYYTMGWYRQAPVKERELVAGITSRGGSTTYADSVKARFTISLDNAKNTVYLQMNSLKPEDTAVYYCNPLWAVHSGYDYLGQGTQVTVSS
  polyreactivity (PSR sort gate): high polyreactivity

## QVQLVESGGGLVQAGGSLRLSCAASGFTIAKYAMGWYRQAPGKERELVAAISSSGGRTYYADSVKGRFTISRDIAKNTVYLQMNSLNPEDTAVYYCAADFSGPFDYWGQGTQVSVSS
  polyreactivity (PSR sort gate): high polyreactivity

## QVQLVESGGGLVQAGGSLRLSCAASGFTIERYAMGWYRQAPGKERELVAVISTSGGSTYYADSVKGRFTISRDNAKNTVYLQMNSLKPEDTAVYYCAKDGSSRGDYHFGWGYYYWGQGSQVTVSS
  polyreactivity (PSR sort gate): low polyreactivity

## QVQLVESGGGLVQAGGSLRLSCAASGFTIGDYAMGWYRQAPGKERELVAAITYSGGSTYYADSVKGRFTISRDNAKNTVYLQMNSLKPEDTAVYYCNADYASQSGYDYWGQGTQVTVSS
  polyreactivity (PSR sort gate): low polyreactivity

## QVQLVESGGGLVQAGGSLRLSCAASGFTIGKNAMGWYRQAPGKERELVAAISLSGGRTYADSVKGRFTISRDNAKNTVYLQMNSLKPEDTAVYYCAANRYPKFYWGQGTQVTVSS
  polyreactivity (PSR sort gate): high polyreactivity

## QVQLVESGGGLVQAGGSLRLSCAASGFTIRRYAMGWYRQAPGKERELVAAITTGGSTYYADSVKGRFTISRDNAKNTVYLQMNSLKPEDTAVYYCAALYPYKQYRLGYDSWGQGTQVTVSS
  polyreactivity (PSR sort gate): high polyreactivity

## QVQLVESGGGLVQAGGSLRLSCAASGFTIRSYAMGWYRQAPGKERELVAGITWRSSSTYYADSVKGRFTISRDNAKNTVYLQMNSLKPEDTAVYYCAARAVYRFNYWGQGTQVTVSS
  polyreactivity (PSR sort gate): high polyreactivity

## QVQLVESGGGLVQAGGSLRLSCAASGFTIRWYAMGWYRQAPGKERELVAAISSGGGSTYYADSVKGRFTISRDNAKNTVYLQMNSLKPEDTAVYYCNARIQYFEYRGYEYWGQGTQVTVSS
  polyreactivity (PSR sort gate): high polyreactivity

## QVQLVESGGGLVQAGGSLRLSCAASGFTIRWYTMGWYRQAPWKERELVATINWSGGSTYYADSVKGRFTISRDNAKNTVYLQMNSLIPEDTAVYYCARRQSGTIKTRMDYWGQGTQVTVSS
  polyreactivity (PSR sort gate): high polyreactivity

## QVQLVESGGGLVQAGGSLRLSCAASGFTISQYAMGWYRQAPGKERELVAAISASGGRTYYADSVKGRFTISRDNAKNTVYLQMNSLKPDDTAVYYCAAKLYVSGGRYWYDYWGQGTQVTVSS
  polyreactivity (PSR sort gate): high polyreactivity

## QVQLVESGGGLVQAGGSLRLSCAASGFTITRYAMGWYRQAPGKERELVAAISKSGGSTFYADSVKGRFTISRDNAKNTVYLQMNSLKPEDTAVYYCAKVLRAKNSFDYWGQGTQVTVSS
  polyreactivity (PSR sort gate): high polyreactivity

## QVQLVESGGGLVQAGGSLRLSCAASGFTITYNAMGWYRKAPGKEREFVAAITNNGSTYYADSVKGRFTISRDNAKNTVYLQMNSLKPEDTAVYFCAVDPGYYDEYNYWGQGTQVTVSS
  polyreactivity (PSR sort gate): low polyreactivity

## QVQLVESGGGLVQAGGSLRLSCAASGFTLAGYAMGWYRQAPGKERELVAAITSSGGSTFYADSVKGRFTISRDNAKNTVYLQMNSLKPEDTAVYYCAAKWAVVSGYGYWGQGTQVTVSS
  polyreactivity (PSR sort gate): high polyreactivity

## QVQLVESGGGLVQAGGSLRLSCAASGFTLARYAMGWYRQATGKERELVAAITKRGGSTYYADSVKGRFTISRDNAMNTVYLQMNSLKPEDTAVYYCATYKRSSHYDYWGQGTQVTVSS
  polyreactivity (PSR sort gate): high polyreactivity

## QVQLVESGGGLVQAGGSLRLSCAASGFTLEFYAMGWYRQAPGKERELVARITTSGGSTRYADSVKGRFTISRDNAKNTVYLQMNSLKPEDTAVYYCPARGYGYRNVQTYGYWGQGTQVTVSS
  polyreactivity (PSR sort gate): high polyreactivity

## QVQLVESGGGLVQAGGSLRLSCAASGFTLEPNTMGWYRQAPGKERELVAGISWSGGSTYYADSVKGRFTISRDNAKNTVYLQMNSLKPEDTAVYYCNDDSGWFCYDYWGQGTQVTVSS
  polyreactivity (PSR sort gate): low polyreactivity

## QVQLVESGGGLVQAGGSLRLSCAASGFTLFGYAMGWYRPAPGKERELVAAITRSGGSTFYADSVKGRFTISRDNAKNTVYLQMNSLKPEDTAVYYCAAVRSKLYYYWGQGTQVTVSS
  polyreactivity (PSR sort gate): high polyreactivity

## QVQLVESGGGLVQAGGSLRLSCAASGFTLGDNAMGWYRQAPGTERELVAAISASGGSTYYADSVKGRFTISRDNEKNTVYLQMNSLKPEDTAVYYCILHGYKYDYWGQGTQVTVSS
  polyreactivity (PSR sort gate): low polyreactivity

## QVQLVESGGGLVQAGGSLRLSCAASGFTLGFYAMGWYRQEPGKERELVAAINWRGGSTYYADSVKGRFTISRDNAKNTVYLLMNSLKPEDTAVYYCNRVYRPSRYDYWGQGTQVTVSS
  polyreactivity (PSR sort gate): high polyreactivity

## QVQLVESGGGLVQAGGSLRLSCAASGFTLGSYVMGWSRQAPGKERELVARITWSGGSTYYADSVKGRFTISRDNAKNTVYLQMNSLKPEDTAVYYCNTGYWARLAYWPFNYKWDDYWGQGTQVTVSS
  polyreactivity (PSR sort gate): high polyreactivity

## QVQLVESGGGLVQAGGSLRLSCAASGFTLGTNTMGWYRQAPGKEREFVAAISGRGSSTYYADSVKGRFTISRDNAKNTVYLQMNSLKPEDTAVYYCNKVFWPHPKVVTGNYWGQGTQVTVSS
  polyreactivity (PSR sort gate): high polyreactivity

## QVQLVESGGGLVQAGGSLRLSCAASGFTLGWYAMGWYRQAPGKERELVASINWDGGSTYYADSVKGRFTISRDNAKNTVYLQMNSLKPEDTAVYYCNAVNKWFPKVGYNYWGQGTQVTVSS
  polyreactivity (PSR sort gate): high polyreactivity

## QVQLVESGGGLVQAGGSLRLSCAASGFTLHSYAMGWYRQAPGKERELVAAITTGGSTYYADSVKGRFTISRDNAKNTVYLQMNSLKPEDTAVYYCAADVPGNYRKYRYGRASSHDYWGQGTQVTVSS
  polyreactivity (PSR sort gate): low polyreactivity

## QVQLVESGGGLVQAGGSLRLSCAASGFTLNAYAMGWYRQAPGKERELVAAISRNGGRTYYADSVKGRFTISRDNAKNTVYLQMNSLKPEDTAVYYCNAVSGTIARPYDPYDYWGQGTQVTVSS
  polyreactivity (PSR sort gate): high polyreactivity

## QVQLVESGGGLVQAGGSLRLSCAASGFTLRGNAMGWYRQAPGKERELVAAISTGGSTYYADSVKGRFTISRDNAKNTVYLQMNSLKPEDTAVYYCARRGWFHYRYYYWGQGTQVTVSS
  polyreactivity (PSR sort gate): high polyreactivity

## QVQLVESGGGLVQAGGSLRLSCAASGFTLRKYSMGWYRQAPGKEREFVATISSRAASTYYADSVKGRFTISRDNAKNTVYLQMISLKPEDTAVYYCNKVSPYRGYYWGQGTQVTVSS
  polyreactivity (PSR sort gate): high polyreactivity
